Series [1] is classed as cell-based, Escherichia coli. As for the experimental part:
To transform the plasmids to be tested, an AAD12-expressing plasmid and a blank control plasmid pET15b were respectively transformed into the protein expression E. coli BL21(DE3) strains. A monoclone was selected and inoculated in a 10 ml centrifuge tube with 3 ml LB medium, and cultivated at 37° C., 200 rpm for 6-8 hours. […] The temperature was switched to 28° C. and the cultivation continued overnight. In the next morning, 200 μL of each bacteria solution was taken and centrifuged to precipitate thallus, 180 μL of the supernatant was taken and added in a 96-well plate, and 20 μL of borate buffer of pH 10 was added. Then the mixture was added with 2 μL of 8% potassium ferricyanide and mixed well, followed by adding 2 μL of 2% 4-aminoantipyrine, and placed at room temperature for 5 min to observe the color and detect the A510 value. […]

The nature of series [2]: Chromogenic reaction of degrading herbicides in bacteria: 2,4-D. The class given is cell-based, Escherichia coli. The settings on record: recombinant E. coli expressing the gene, 2,4-D added to the medium, red = phenols. As for the experimental part:
To transform the plasmids to be tested, an AAD12-expressing plasmid and a blank control plasmid pET15b were respectively transformed into the protein expression E. coli BL21(DE3) strains. A monoclone was selected and inoculated in a 10 ml centrifuge tube with 3 ml LB medium, and cultivated at 37° C., 200 rpm for 6-8 hours. The culture medium was added with 0.1 mM IPTG and 2 mM α-ketoglutaric acid, and then 0.5 mM 2,4-D. The temperature was switched to 28° C. and the cultivation continued overnight. In the next morning, 200 μL of each bacteria solution was taken and centrifuged to precipitate thallus, 180 μL of the supernatant was taken and added in a 96-well plate, and 20 μL of borate buffer of pH 10 was added. Then the mixture was added with 2 μL of 8% potassium ferricyanide and mixed well, followed by adding 2 μL of 2% 4-aminoantipyrine, and placed at room temperature for 5 min to observe the color and detect the A510 value.
The bacteria solution also appeared red when 2,4-D was directly added into the medium of AAD12-expressing bacteria, as shown in FIG. 1.
2,4-D was added into these bacteria solutions of AAD gene-expressing recombinant E. coli and cultivation was continued for color development.

In a further series the test system is Arabidopsis thaliana. The series can be described thus: Herbicide resistance of transgenic Arabidopsis thaliana seedlings on plate medium (root growth). It counts as in vivo. The settings on record: Arabidopsis overexpressing the gene. As for the experimental part:
Expression in Arabidopsis thaliana was regulated by its AtUbi10 Arabidopsis thaliana ubiquitin promoter and the MAS (mannopine synthase) terminator. Hygromycin resistance gene (HygR=hpt) served as the selection marker.
Preparation of Agrobacterium infection solution: An activated Agrobacterium (GV3101) monoclone was picked and inoculated in 30 ml YEP liquid medium [yeast powder 10 g/L, tryptone 10 g/L, NaCl 5 g/L, 25 mg/L Rifampicin and 50 mg/L Kanamycin], shaking-cultured at 200 rmp/min, 28° C. overnight until the OD600 was about 1.0-1.5, then centrifuged at 6000 rmp/min for 10 min to collect the bacteria, and the supernatant was discarded. Arabidopsis thaliana infection solution (sucrose 50 g/L, Silwet L-77 300 μL/L, no need to adjust pH) was used to resuspend the cells to OD600=0.8 for later use.
Genetic transformation of Arabidopsis thaliana by flower dipping: Before transformation of Arabidopsis thaliana plants, attentions were paid to whether the plants were growing well, the inflorescences were abundant, and no stress response occurred. The first transformation was performed when plants were about 20 cm high. Plants could be properly watered if the soil was dry. The grown siliques were cut off with scissors the day before transformation. The inflorescences of the plants to be transformed were soaked in the above-mentioned Agrobacterium solution for 30 seconds to 1 minute, which was stirred gently during the period. And a layer of liquid film should appear on the infiltrated plant. The transformed plants were cultured in a dark environment for 24 hours, and then taken out and grown in a normal light environment. A second transformation could be performed in the same way a week later.
Seeds were treated with disinfectant for 5 min, washed with sterile water for 5 times and then one part was spread on MS transgenic screening medium (containing 30 μg/mL hygromycin, 100 μg/mL carbenicillin) to screen transgenic seedlings, and the other part was spread on MS medicated medium [containing 250 μg/mL Cefotaxime sodium and 0.3 μM 2,4-D] to screen herbicide-resistant seedlings at mean time. The petri dish spread with seeds was placed at 4° C. for vernalization for 3 days, and taken out to a illumination incubator for cultivation (temperature of 22° C., 16 hours of light, 8 hours of darkness, light intensity of 100-150 μmol/m^2/s, humidity of 75%). After one week, it was observed that the roots of the wild-type control seedlings were not elongated and their growth was inhibited, while the transgenic seedlings had normal root growth, showing drug resistance. The transgenic positive seedlings and herbicide-resistant seedlings were photographed and transplanted into small pots filled with soil for cultivation.
The transgenic lines with the nine vectors, pQY2309, pQY2310, pQY2311, pQY2312, pQY2313, pQY2314, pQY2315, pQY2316 and pQY2317, overexpressing AAD gene in the T2 generation were further tested on plate medium for their resistance to 2,4-D, 2,4-DB sodium and MCPA herbicide. Two events were tested for each transformant.

These results are taken from patent US20240043859A1, “HERBICIDE-RESISTANT PROTEIN, AND GENE AND USE THEREOF” (QINGDAO KINGAGROOT CHEMICAL COMPOUND CO., LTD., priority 2020, published 2024).

Entries after “also recorded” stand apart in the source; their conditions may differ.

B1: QYD54: AAD-like enzyme, SEQ ID NO. 107 (protein)
chain: MARMFDIAPLDATFGAVVTGVKVTRIDDATWRDLHAAWLEYALLIFPGQFLSRAEQIAFAKRFGPLEFEMAPISNVKADGTIRIEADNDDVVKVLKGNMGWHADSTYMPVQAKGAVFSAEVVPGEGGRTGWADMRAAYDALDAARRVRVESLTAYHSLYYSQAKLGHQPKRGSDYSGYGFHDGPVPRRPLVKVHPETGRKSLLIGRHAHNIPGMDVAESTQFLESLVDFACQPPRIYHHQWTAGDAVVWDNRCLLHRATPWDMTKPRVMWHSRIAGDPVSEASLG
modifications: Synthetic polypeptide, QYD54, D54
For B1, the “Chromogenic reaction of degrading herbicides in bacteria: MCPA” value (“Chromogenic reaction … MCPA” for short) in series [1] is recorded as “Yes”. For the same molecule, the “Chromogenic reaction of degrading herbicides in bacteria: 2,4-D” value (from here on “Chromogenic reaction … 2,4-D”) in series [2] is recorded as “Yes”; in series [2] (listed as D54), “could degrade 2,4-D; also recorded: capable of degrading 2,4-D”.

B2: QYD62: AAD-like enzyme, SEQ ID NO. 123; 100.00% identical to US20140141044-13793 (for medical field) (protein)
chain: MTIAIRQLHKHFVGEVSGLDLRKPLTADEARDIEAAMDKYAVLVFHDQDITDEQQMAFALNFGQREDARGGTVTKAKDYRLQSGLNDVSNLGKDGKPLAKDSRTHLFNLGNCLWHSDSSFRPIPAKFSLLSARVVNPKGGNTEFADMRAAYDALDDETKTEIEDLVCEHSLMYSRGSLGFTEYTDEEKEMFKPVLQRLVRTHPVHRRKSLYLSSHAGKVVGMSVPEGRLLLRDLNEHATQPEFVYVHKWKLHDLVMWDNRQTMHRVRRYDQSQPRDMRRATVAGTEPTVQQQAAE
modifications: Synthetic polypeptide, QYD62, D62
For the molecule B2, the “Chromogenic reaction … MCPA” value in series [1] is “Yes”. Also, the “Chromogenic reaction … 2,4-D” value in series [2] is “Yes”; in series [2] (listed as D62) it was “could degrade 2,4-D; also recorded: capable of degrading 2,4-D”.

B3: QYD32: AAD-like enzyme, SEQ ID NO. 63 (protein)
chain: MSQMTFEPLSGPTFGARVHGVKLTAMDDAAFRELHDNWLEYGLLIVPEQFLTREEQIAFARRFGDLEFEIAEIGNMRDDGSLRPDDGSDEMMKINRGNMGWHHDSTYMPVQAKGAVFSAEIVPQEGGATGFADMRAAYDELDDAMKARIENLRAHHSLHHSQGKVGHKTKPVKDGKVNAGGTFGGYGLHDGPVSVRPLVKVHPETGRKNLLVGRHAYDIIGMSSEESEKLLQDLVDFACQPPRIYHHQWAPGDAVIWDNRRLMHQATPWPFDQARRMWHSRIAGDPATEAAMAA
modifications: Synthetic polypeptide, QYD32, D32
In the case of B3, the “Resistance of transgenic Arabidopsis thaliana: 2,4-D” value (shortened to “Resistance”) in the series on Arabidopsis thaliana is listed as “Yes”. Also, in series [1], the “Chromogenic reaction … MCPA” value is recorded as “NO”. The “Chromogenic reaction … 2,4-D” value in series [2] was “Yes”; in series [2] (listed as D32), “red reactions”.

B4: QYD35: AAD-like enzyme, SEQ ID NO. 69 (protein)
chain: MSARPFTVEPLPATFGARITGLDLAALDDATFAALYDAWLEYALLIFPGAGLSTAEQVTFARRFGDMEFDIAPLSNVRKDGSLRADDGTDDVVKVLRGNMGWHADSTYMPVQAKGAVFSAHVVPEEGGETGWADMRAAYDALDDDLRRRIEGLSAHHSLVHSQARLGHAHGTDSEYSGYGFHDEAPLRPLVKVHPETGRRSLLIGRHAYGIPGLEETASERLLDELVDFACRPPRVYHHRWQVGDVVLWDNRCLLHRACPWDMSRPRVMYHSRIAGDPVTEAGLAGQSEQPSASGS
modifications: Synthetic polypeptide, QYD35, D35
Take B4: the “Chromogenic reaction … MCPA” value in series [1] is on record as “NO”. Also, the “Chromogenic reaction … 2,4-D” value in series [2] was “Yes”; in series [2] (listed as D35), “red reactions”.

B5: QYD21: AAD-like enzyme, SEQ ID NO. 41 (protein)
chain: MTTIETKPLTPCFGVEVSGMTLSEVSKGHDFARLRDLFEEHSALLFRAQEISNEEHMALAQLFGPIEDRKADERKPGEAFEVPEVSNVQKDGTTSGEMDLHTLNLKSNFLWHSDSTFLPTPALTNILIGRVVTTEGGATELASTRAAWAAMPEELKSRIRGRGIWHRYSHSRRKISPELAKLPMFNKWPDQHWSAVWPNPVNGREGLYIASHAFKVDGYDEAESQELLDELMAFCTQPEFTYAHQWNVGDVLIWDQRAVLHRGTPWPYEQPRTLSSICVSVTEADGIGSIRMPA
modifications: Synthetic polypeptide, QYD21, D21
Take B5: the “Resistance” value in the series with Arabidopsis thaliana was “Yes”. Also, the “Chromogenic reaction … MCPA” value in series [1] was “Yes”. Also, the “Chromogenic reaction … 2,4-D” value in series [2] is on record as “Yes”; in series [2] (listed as D21), “could degrade 2,4-D; also recorded: capable of degrading 2,4-D”.

B6: QYD26: AAD-like enzyme, SEQ ID NO. 51 (protein)
chain: MSEFIYTLPSHNRAASYSHIRVTPTTGAIGADVENLDLTRLSDEGFAELRQALLAHKVIFIRDQALSVADLERVTQHLGEFGREPYVTCMADHPHVVHVVKEASEKAPFVFGGAWHTDWTFQERPPAFTLLYGHDIPPYGGDTCYANLALAYEWLSPGMQALLENLDAVHSPEMAYGVNAKHNALLENMAINYGSDTSADERSHPLVTRHPETGKKVLFINPAYTTGIKGLRTEESRPLLDYLFKLATSEAFTCRMRWRQGTLAIWDNRSTWHMPVADYHGMRREMFRTTVIGEVPSR
modifications: Synthetic polypeptide, QYD26, D26
For B6, in the series with Arabidopsis thaliana, the “Resistance” value was “Yes”. Besides, the “Chromogenic reaction … MCPA” value in series [1] is given as “Yes”. In addition, the “Chromogenic reaction … 2,4-D” value was “Yes” in series [2] and “red reactions” in series [2] (listed as D26).

B7: QYD33: AAD-like enzyme, SEQ ID NO. 65 (protein)
chain: MSEHFDVEPLDASFGARITGLKLTEMSDAAFDALYETWLEHGLLLFPDQHMEPEAQVDVARRFGPLEVKLFAISNLKDDGSVRTSDEDDLVKILKGNMGWHHDSTYMPLQAKGAVFSAHVVPSEGGETGFADMRQAWDALDDDMKRRLEGLTALHSLHYSQMKAGFRRKEKDSEYIGYGLDERPPVRRQMVKVHPETGRKSLLVGRHAFGVSGMSEKESEEFVDGLNEFAGSGDWTYHHKWTPGEVVLWDNRCLMHRACPWDMTKPRVMYHSRIAGDPVSEAEVAA
modifications: Synthetic polypeptide, QYD33, D33
On to B7, for which the “Chromogenic reaction … MCPA” value in series [1] is given as “NO”. For the same molecule, the “Chromogenic reaction … 2,4-D” value in series [2] is recorded as “Yes”; in series [2] (listed as D33), “red reactions”.
